Experimental data: patent US20140087995A1 (published 2014)
Numbered stars: 1 amine (or outer) side, 2 acyl side, 3 side chain; on linkers, the order of the positions; unused ones are H or OH. Bridge positions count the residues as written; N and C are the ends. Side chains are listed from the residue outwards. Ends that are not written are not given here. * marks the point of attachment. C20 diacid = O=C(O)CCCCCCCCCCCCCCCCCCC(=O)*; γGlu = O=C(O)[C@H](CCC(=O)[*:2])N[*:1]; AEEA = NCCOCCOCC(=O)O

T1: human calcitonin receptor (human, UniProt P30988 25-474)
T1 sequence (looked up): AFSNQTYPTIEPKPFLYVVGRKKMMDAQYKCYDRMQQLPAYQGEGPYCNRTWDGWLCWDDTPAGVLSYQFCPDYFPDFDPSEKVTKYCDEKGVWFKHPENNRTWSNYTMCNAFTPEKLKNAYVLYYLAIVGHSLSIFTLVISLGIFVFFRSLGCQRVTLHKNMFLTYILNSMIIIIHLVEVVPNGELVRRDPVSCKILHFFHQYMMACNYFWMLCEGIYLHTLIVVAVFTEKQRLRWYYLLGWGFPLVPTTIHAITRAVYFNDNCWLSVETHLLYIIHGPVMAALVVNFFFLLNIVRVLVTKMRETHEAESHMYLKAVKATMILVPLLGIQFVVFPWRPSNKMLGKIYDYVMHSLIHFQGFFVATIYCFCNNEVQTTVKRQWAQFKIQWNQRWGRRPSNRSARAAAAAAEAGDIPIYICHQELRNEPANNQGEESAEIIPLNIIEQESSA

T2: human amylin receptor (amylin 3(a) receptor: human calcitonin receptor plus RAMP-3) (human, UniProt P30988 25-474; O60896 24-148)
T2 sequence (looked up) 1: T1 sequence (looked up)
T2 sequence (looked up) 2: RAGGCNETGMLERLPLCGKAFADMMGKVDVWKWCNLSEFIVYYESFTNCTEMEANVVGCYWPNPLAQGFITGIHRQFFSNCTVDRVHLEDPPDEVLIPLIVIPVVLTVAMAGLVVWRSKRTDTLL

B1: N^ε-[(4S)-4-carboxy-4-(19-carboxynonadecanoylamino)butanoyl]Lys[Arg1,Arg17,Pro21,Pro27,His35]-h-amylin (peptide)
peptide: K([γGlu-C20 diacid])RCNTATCATQRLANFLRHSSPNFGAIPSSTNVGSHTY-NH2
modifications: disulfide 3-8; N-terminus assumed
SMILES: CC[C@H](C)[C@H](NC(=O)[C@H](C)NC(=O)CNC(=O)[C@H](Cc1ccccc1)NC(=O)[C@H](CC(N)=O)NC(=O)[C@@H]1CCCN1C(=O)[C@H](CO)NC(=O)[C@H](CO)NC(=O)[C@H](Cc1c[nH]cn1)NC(=O)[C@H](CCCNC(=N)N)NC(=O)[C@H](CC(C)C)NC(=O)[C@H](Cc1ccccc1)NC(=O)[C@H](CC(N)=O)NC(=O)[C@H](C)NC(=O)[C@H](CC(C)C)NC(=O)[C@H](CCCNC(=N)N)NC(=O)[C@H](CCC(N)=O)NC(=O)[C@@H](NC(=O)[C@H](C)NC(=O)[C@@H]1CSSC[C@H](NC(=O)[C@H](CCCNC(=N)N)NC(=O)[C@@H](N)CCCCNC(=O)CC[C@H](NC(=O)CCCCCCCCCCCCCCCCCCC(=O)O)C(=O)O)C(=O)N[C@@H](CC(N)=O)C(=O)N[C@@H]([C@@H](C)O)C(=O)N[C@@H](C)C(=O)N[C@@H]([C@@H](C)O)C(=O)N1)[C@@H](C)O)C(=O)N1CCC[C@H]1C(=O)N[C@@H](CO)C(=O)N[C@@H](CO)C(=O)N[C@H](C(=O)N[C@@H](CC(N)=O)C(=O)N[C@H](C(=O)NCC(=O)N[C@@H](CO)C(=O)N[C@@H](Cc1c[nH]cn1)C(=O)N[C@H](C(=O)N[C@@H](Cc1ccc(O)cc1)C(N)=O)[C@@H](C)O)C(C)C)[C@@H](C)O
notes: also called compound 44
B2: N^-1-[(4S)-4-carboxy-4-(19-carboxynonadecanoylamino)butanoyl]-Gly[Arg1,Arg17,Pro21,Pro27,His35]-h-amylin (peptide)
peptide: {C20 diacid-γGlu}-GRCNTATCATQRLANFLRHSSPNFGAIPSSTNVGSHTY-NH2
modifications: disulfide 3-8
SMILES: CC[C@H](C)[C@H](NC(=O)[C@H](C)NC(=O)CNC(=O)[C@H](Cc1ccccc1)NC(=O)[C@H](CC(N)=O)NC(=O)[C@@H]1CCCN1C(=O)[C@H](CO)NC(=O)[C@H](CO)NC(=O)[C@H](Cc1c[nH]cn1)NC(=O)[C@H](CCCNC(=N)N)NC(=O)[C@H](CC(C)C)NC(=O)[C@H](Cc1ccccc1)NC(=O)[C@H](CC(N)=O)NC(=O)[C@H](C)NC(=O)[C@H](CC(C)C)NC(=O)[C@H](CCCNC(=N)N)NC(=O)[C@H](CCC(N)=O)NC(=O)[C@@H](NC(=O)[C@H](C)NC(=O)[C@@H]1CSSC[C@H](NC(=O)[C@H](CCCNC(=N)N)NC(=O)CNC(=O)CC[C@H](NC(=O)CCCCCCCCCCCCCCCCCCC(=O)O)C(=O)O)C(=O)N[C@@H](CC(N)=O)C(=O)N[C@@H]([C@@H](C)O)C(=O)N[C@@H](C)C(=O)N[C@@H]([C@@H](C)O)C(=O)N1)[C@@H](C)O)C(=O)N1CCC[C@H]1C(=O)N[C@@H](CO)C(=O)N[C@@H](CO)C(=O)N[C@H](C(=O)N[C@@H](CC(N)=O)C(=O)N[C@H](C(=O)NCC(=O)N[C@@H](CO)C(=O)N[C@@H](Cc1c[nH]cn1)C(=O)N[C@H](C(=O)N[C@@H](Cc1ccc(O)cc1)C(N)=O)[C@@H](C)O)C(C)C)[C@@H](C)O
notes: also called compound 47
B3: N^-1-[(4S)-4-carboxy-4-(19-carboxynonadecanoylamino)butanoyl]-Gly[Arg1,Arg17,Pro21,Pro27]-h-amylin (peptide)
peptide: {C20 diacid-γGlu}-GRCNTATCATQRLANFLRHSSPNFGAIPSSTNVGSNTY-NH2
modifications: disulfide 3-8
SMILES: CC[C@H](C)[C@H](NC(=O)[C@H](C)NC(=O)CNC(=O)[C@H](Cc1ccccc1)NC(=O)[C@H](CC(N)=O)NC(=O)[C@@H]1CCCN1C(=O)[C@H](CO)NC(=O)[C@H](CO)NC(=O)[C@H](Cc1c[nH]cn1)NC(=O)[C@H](CCCNC(=N)N)NC(=O)[C@H](CC(C)C)NC(=O)[C@H](Cc1ccccc1)NC(=O)[C@H](CC(N)=O)NC(=O)[C@H](C)NC(=O)[C@H](CC(C)C)NC(=O)[C@H](CCCNC(=N)N)NC(=O)[C@H](CCC(N)=O)NC(=O)[C@@H](NC(=O)[C@H](C)NC(=O)[C@@H]1CSSC[C@H](NC(=O)[C@H](CCCNC(=N)N)NC(=O)CNC(=O)CC[C@H](NC(=O)CCCCCCCCCCCCCCCCCCC(=O)O)C(=O)O)C(=O)N[C@@H](CC(N)=O)C(=O)N[C@@H]([C@@H](C)O)C(=O)N[C@@H](C)C(=O)N[C@@H]([C@@H](C)O)C(=O)N1)[C@@H](C)O)C(=O)N1CCC[C@H]1C(=O)N[C@@H](CO)C(=O)N[C@@H](CO)C(=O)N[C@H](C(=O)N[C@@H](CC(N)=O)C(=O)N[C@H](C(=O)NCC(=O)N[C@@H](CO)C(=O)N[C@@H](CC(N)=O)C(=O)N[C@H](C(=O)N[C@@H](Cc1ccc(O)cc1)C(N)=O)[C@@H](C)O)C(C)C)[C@@H](C)O
notes: also called compound 46
B4: N^ε1-[(4S)-4-carboxy-4-[[(4S)-4-carboxy-4-(19-carboxynonadecanoylamino)butanoyl]amino]butanoyl]-[Ser14,Arg17,Pro21,Pro27,Pro34,Glu35]-h-amylin (peptide)
peptide: K([γGlu-γGlu-C20 diacid])CNTATCATQRLASFLRHSSPNFGAIPSSTNVGPETY-NH2
modifications: disulfide 2-7; N-terminus assumed
SMILES: CC[C@H](C)[C@H](NC(=O)[C@H](C)NC(=O)CNC(=O)[C@H](Cc1ccccc1)NC(=O)[C@H](CC(N)=O)NC(=O)[C@@H]1CCCN1C(=O)[C@H](CO)NC(=O)[C@H](CO)NC(=O)[C@H](Cc1c[nH]cn1)NC(=O)[C@H](CCCNC(=N)N)NC(=O)[C@H](CC(C)C)NC(=O)[C@H](Cc1ccccc1)NC(=O)[C@H](CO)NC(=O)[C@H](C)NC(=O)[C@H](CC(C)C)NC(=O)[C@H](CCCNC(=N)N)NC(=O)[C@H](CCC(N)=O)NC(=O)[C@@H](NC(=O)[C@H](C)NC(=O)[C@@H]1CSSC[C@H](NC(=O)[C@@H](N)CCCCNC(=O)CC[C@H](NC(=O)CC[C@H](NC(=O)CCCCCCCCCCCCCCCCCCC(=O)O)C(=O)O)C(=O)O)C(=O)N[C@@H](CC(N)=O)C(=O)N[C@@H]([C@@H](C)O)C(=O)N[C@@H](C)C(=O)N[C@@H]([C@@H](C)O)C(=O)N1)[C@@H](C)O)C(=O)N1CCC[C@H]1C(=O)N[C@@H](CO)C(=O)N[C@@H](CO)C(=O)N[C@H](C(=O)N[C@@H](CC(N)=O)C(=O)N[C@H](C(=O)NCC(=O)N1CCC[C@H]1C(=O)N[C@@H](CCC(=O)O)C(=O)N[C@H](C(=O)N[C@@H](Cc1ccc(O)cc1)C(N)=O)[C@@H](C)O)C(C)C)[C@@H](C)O
notes: also called compound 120
B5: N^ε-[2-[2-[2-[[(4S)-4-carboxy-4-(19-carboxynonadecanoylamino)butanoyl]amino]ethoxy]ethoxy]acetyl]Lys[Arg1,Arg17,Pro21,Pro27,His35]-h-amylin (peptide)
peptide: K([AEEA-γGlu-C20 diacid])RCNTATCATQRLANFLRHSSPNFGAIPSSTNVGSHTY-NH2
modifications: disulfide 3-8; N-terminus assumed
SMILES: CC[C@H](C)[C@H](NC(=O)[C@H](C)NC(=O)CNC(=O)[C@H](Cc1ccccc1)NC(=O)[C@H](CC(N)=O)NC(=O)[C@@H]1CCCN1C(=O)[C@H](CO)NC(=O)[C@H](CO)NC(=O)[C@H](Cc1c[nH]cn1)NC(=O)[C@H](CCCNC(=N)N)NC(=O)[C@H](CC(C)C)NC(=O)[C@H](Cc1ccccc1)NC(=O)[C@H](CC(N)=O)NC(=O)[C@H](C)NC(=O)[C@H](CC(C)C)NC(=O)[C@H](CCCNC(=N)N)NC(=O)[C@H](CCC(N)=O)NC(=O)[C@@H](NC(=O)[C@H](C)NC(=O)[C@@H]1CSSC[C@H](NC(=O)[C@H](CCCNC(=N)N)NC(=O)[C@@H](N)CCCCNC(=O)COCCOCCNC(=O)CC[C@H](NC(=O)CCCCCCCCCCCCCCCCCCC(=O)O)C(=O)O)C(=O)N[C@@H](CC(N)=O)C(=O)N[C@@H]([C@@H](C)O)C(=O)N[C@@H](C)C(=O)N[C@@H]([C@@H](C)O)C(=O)N1)[C@@H](C)O)C(=O)N1CCC[C@H]1C(=O)N[C@@H](CO)C(=O)N[C@@H](CO)C(=O)N[C@H](C(=O)N[C@@H](CC(N)=O)C(=O)N[C@H](C(=O)NCC(=O)N[C@@H](CO)C(=O)N[C@@H](Cc1c[nH]cn1)C(=O)N[C@H](C(=O)N[C@@H](Cc1ccc(O)cc1)C(N)=O)[C@@H](C)O)C(C)C)[C@@H](C)O
notes: also called compound 45

Target: T1, human calcitonin receptor
Experiment: cell-based or functional assay

| hCTR funct. EC50 (pM) | Binder |
| --- | --- |
| 4750 pM | B1 |
| 1320 pM | B2 |
| 899 pM | B3 |
| 887 pM | B4 |
| 10100 pM | B5 |

Target: T2, human amylin receptor (amylin 3(a) …)
Experiment: cell-based or functional assay

| Ratio hCT/hAmylin funct. | hAmylin-R funct. EC50 (pM) | Binder |
| --- | --- | --- |
| 24 | 198 pM | B1 |
| 6 | 222 pM | B2 |
| 10.2 | 88 pM | B3 |
| 8.1 | 109 pM | B4 |
| 17 | 594 pM | B5 |

Target: T2, human amylin receptor (amylin 3(a) …)
Experiment: SPA competition binding, displacement of 125I-rat amylin, membranes of BHK amylin 3(a)/CRE-luc cells
Method in brief: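 Cell membranes were prepared by homogenisation in Na-HEPES/EDTA buffer, pH 7.4, and stored at −80° C. They were then coupled to SPA beads at 35 ng/μL final and exposed to compounds in assay buffer containing CaCl2, MgCl₂, OA and Tween20. After 120 min at 25° C, plates were counted and IC₅₀ derived.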

| IC50 | Binder |
| --- | --- |
| 0.275 nM | B1 |
| 0.344 nM | B2 |
| 0.195 nM | B3 |
| 0.076 nM | B4 |
| 0.552 nM | B5 |
